Experiment [1] deals with feline IgM-Fc pentamer (FLAG-tagged feline IgM-Fc with Myc-tagged feline IgJ). Briefly: immunoblotting (non-reducing conditions) of IgM-Fc bound AIM, quantified using NIH ImageJ. Particulars: supernatant after a co-culture of feline Fc-expressing HEK293T cells and cells expressing wild-type, chimeric, or mutant feline AIM; parent: est. 1; read off a plot. A general note: In western blotting, separated proteins are transferred to a membrane and probed.

Experiment [2] concerns the target feline IgM-Fc pentamer (FLAG-tagged feline IgM-Fc with Myc-tagged feline IgJ) (cat). Briefly: SPR; Biacore T100, 25 °C; IgM-Fc pentamers amine-coupled on a CM5 chip (1000 RU), BSA reference cell; AIM as analyte 50 nM to 5 μM in D-PBS(-) pH 7.4, single-cycle kinetics, heterogeneous ligand model. Background: In SPR one partner is held on a chip, and binding of the other changes the refractive index at the surface.

Experiment [3] deals with mouse IgM-Fc pentamer (FLAG-IgM-Fc with IgJ-Myc) (mouse) (UniProt P01872). The experiment is described as above.
In experiment [4] the target is T1, mouse IgM-Fc pentamer (FLAG-IgM-Fc with IgJ-Myc) (mouse, UniProt P01872 1-454; P01592 22-159).
T1 chain 1: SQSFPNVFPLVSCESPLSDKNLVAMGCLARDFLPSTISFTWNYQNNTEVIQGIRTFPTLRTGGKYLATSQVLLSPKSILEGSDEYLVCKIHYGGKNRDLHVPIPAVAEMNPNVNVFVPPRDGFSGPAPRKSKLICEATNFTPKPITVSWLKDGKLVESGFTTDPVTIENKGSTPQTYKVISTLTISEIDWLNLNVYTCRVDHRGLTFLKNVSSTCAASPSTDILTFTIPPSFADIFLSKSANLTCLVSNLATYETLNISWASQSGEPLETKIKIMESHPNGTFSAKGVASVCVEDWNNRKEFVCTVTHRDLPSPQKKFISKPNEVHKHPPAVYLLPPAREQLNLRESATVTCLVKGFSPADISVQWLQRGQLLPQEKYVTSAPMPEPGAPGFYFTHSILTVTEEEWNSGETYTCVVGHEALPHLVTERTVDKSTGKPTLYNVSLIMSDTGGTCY
T1 chain 2: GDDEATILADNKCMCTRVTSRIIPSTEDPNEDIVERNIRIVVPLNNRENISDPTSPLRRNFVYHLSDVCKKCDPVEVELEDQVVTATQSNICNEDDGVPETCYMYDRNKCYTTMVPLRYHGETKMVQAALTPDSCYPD
Briefly: SPR.

For experiment [5], the target named is T1, mouse IgM-Fc pentamer (FLAG-IgM-Fc with …). Briefly: SPR.

With “recombinant feline AIM (3-SRCR) (from UniProt A0A1E1GEY0) R299K; R300I; R338K”, in experiment [1], the ratio to parent amounted to 0.58.
Turning to “recombinant feline AIM (4-SRCR) (from UniProt A0A1E1GEY0 20-355) (natural protein)”, in experiment [2], the koff is 4.38e-05 s⁻¹ and the kon amounted to 9.52 M⁻¹ s⁻¹.

B1: recombinant mouse AIM (natural protein)
chain: ESPTKVQLVGGAHRCEGRVEVEHNGQWGTVCDDGWDRRDVAVVCRELNCGAVIQTPRGASYQPPASEQRVLIQGVDCNGTEDTLAQCELNYDVFDCSHEEDAGAQCENPDSDLLFIPEDVRLVDGPGHCQGRVEVLHQSQWSTVCKAGWNLQVSKVVCRQLGCGRALLTYGSCNKNTQGKGPIWMGKMSCSGQEANLRSCLLSRLENNCTHGEDTWMECEDPFELKLVGGDTPCSGRLEVLHKGSWGSVCDDNWGEKEDQVVCKQLGCGKSLHPSPKTRKIYGPGAGRIWLDDVNCSGKEQSLEFCRHRLWGYHDCTHKEDVEVICTDFDV
As for B1, in experiment [3], the Kd was found to be 5820 nM, the koff is 0.0223 s⁻¹ and the kon is 3830 M⁻¹ s⁻¹.

B2: recombinant feline AIM (3-SRCR) (natural protein)
chain: SFSRVRLVGGDHRCEGRVELQQDDEWVTVCDDYWNMDSVAVLCRELGCGAARKTMSGTVYGPVTPKDQKVFIHLFRCNGIEESLSQCEREDAIGCSHVEDAGAVCEPIYTGPGILGPESVRLADGPGRCQGRVEVKFRGEWSSVCQAGWSFAAAKVVCRQLGCGRATLTRRGCNKATQGQGAIWQRKASCSGQEVSLQDCLSEVWEHNCTHNEDVWVECEDPFALKLVGGRSHCEGRLEVLHKGEWGSVCDDGWGQDADRVVCRQLGCGQPLSPPVKVRRRFGPGVGRIWLDDVKCSGKEPSLEQCLHRSWGYHNCNHREDVAVVCEEQQSGLPDA
In the case of B2, the Kd in experiment [4] was 14.6 nM; in experiment [2] it was 5.97 nM. The koff in experiment [2] was 5.65e-05 s⁻¹; in experiment [5] it was 0.000106 s⁻¹. In experiment [2], the kon was 9460 M⁻¹ s⁻¹.

As usually defined, the koff is a measure of how fast the partners let go of each other. A low value points to a long-lived complex. The kon is the second-order rate constant of association. Read a high kon as faster complex formation. As usually defined, the Kd is the concentration at which binding is half-saturated. Read a low Kd as tighter binding.

These data come from publication PMC5059666 (2016).
